Measured values published in paper PMC6996891.

Molecular target: attachment invasion locus (Ail) protein, wild type (Yersinia pestis)
Assay: native gel or EMSA

“attachment invasion locus (Ail) protein, wild type (natural protein)” was tested. Which percent oligomers did it give?
The percent oligomers was 20%.
